B1: full-length mouse LIGHT, on cells (mLIGHT-IRES-EGFP) [mouse] / full-length WT mouse HVEM-mCherry, on cells [mouse] (parent complex)
chain 1: MESVVQPSVFVVDGQTDIPFRRLEQNHRRRRCGTVQVSLALVLLLGAGLATQGWFLLRLHQRLGDIVAHLPDGGKGSWEKLIQDQRSHQANPAAHLTGANASLIGIGGPLLWETRLGLAFLRGLTYHDGALVTMEPGYYYVYSKVQLSGVGCPQGLANGLPITHGLYKRTSRYPKELELLVSRRSPCGRANSSRVWWDSSFLGGVVHLEAGEEVVVRVPGNRLVRPRDGTRSYFGAFMV
chain 2: QPSCRQEEFLVGDECCPMCNPGYHVKQVCSEHTGTVCAPCPPQTYTAHANGLSKCLPCGVCDPDMGLLTWQECSSWKDTVCRCIPGYFCENQDGSHCSTCLQHTTCPPGQRVEKRGTHDQDTVCADCLTGTFSLGGTQEECLPWTNCSAFQQEVRRGTNSTDTTCSSQVVYYVVSILLPLVIVGAGIAGFLICTRRHLHTSSVAKELEPFQEQQENTIRFPVTEVGFAETEEETASN
B2: full-length mouse BTLA-EGFP, on cells [mouse] / full-length WT mouse HVEM-mCherry, on cells [mouse] (parent complex)
chain 1: EKATKRNDEECPVQLTITRNSKQSARTGELFKIQCPVKYCVHRPNVTWCKHNGTICVPLEVSPQLYTSWEENQSVPVFVLHFKPIHLSDNGSYSCSTNFNSQVINSHSVTIHVRERTQNSSEHPLITVSDIPDATNASGPSTMEERPGRTWLLYTLLPLGALLLLLACVCLLCFLKRIQGKEKKPSDLAGRDTNLVDIPASSRTNHQALPSGTGIYDNDPWSSMQDESELTISLQSERNNQGIVYASLNHCVIGRNPRQENNMQEAPTEYASICVRS
chain 2: B1 chain 2

Variants of B1 are the subject of one test. The test is described as follows: flow cytometry, cell–cell method. On the technique in general: Flow cytometry measures light scatter and fluorescence of single cells or particles in a stream.
For the variant chain 2 QPSCRQEEFLVGDECCPMCNPGYHVKQVCSEHTGTVCAPCPPQTYTAHANDLSKCLPCGVCDPDMGLLTWQECSSWKDTVCRCIPGYFCENQDGSHCSTCLQHTTCPPGQRVEKRGTHDQDTVCADCLTGTFSLGGTQEECLPWTNCSAFQQEVRRGTNSTDTTCSSQVVYYVVSILLPLVIVGAGIAGFLICTRRHLHTSSVAKELEPFQEQQENTIRFPVTEVGFAETEEETASN [chain 2 G51D], the ratio to parent came to 0.4.
As for chain 2 QPSCRQEEFLVGDECCPMCNPGYHVKQVCSEHTGAVCAPCPPQTYTAHANGLSKCLPCGVCDPDMGLLTWQECSSWKDTVCRCIPGYFCENQDGSHCSTCLQHTTCPPGQRVEKRGTHDQDTVCADCLTGTFSLGGTQEECLPWTNCSAFQQEVRRGTNSTDTTCSSQVVYYVVSILLPLVIVGAGIAGFLICTRRHLHTSSVAKELEPFQEQQENTIRFPVTEVGFAETEEETASN [chain 2 T35A], the ratio to parent came to 0.7.
On to chain 2 QPSCRQEEFLVGDECCPMCNPGYHVKQVCSEHTRTVCAPCPPQTYTAHANGLSKCLPCGVCDPDMGLLTWQECSSWKDTVCRCIPGYFCENQDGSHCSTCLQHTTCPPGQRVEKRGTHDQDTVCADCLTGTFSLGGTQEECLPWTNCSAFQQEVRRGTNSTDTTCSSQVVYYVVSILLPLVIVGAGIAGFLICTRRHLHTSSVAKELEPFQEQQENTIRFPVTEVGFAETEEETASN [chain 2 G34R], for which the ratio to parent is 0.6.
For the variant chain 2 QPSCRQEEFLVGDECCPMCNPGYHVKQVCSEHTGTVCAPCPPQTYTAHANGLSKCLPCGVCDPDMGLLTWQECSSWKDTVCRCIPGYFCENQDGSHCATCLQHTTCPPGQRVEKRGTHDQDTVCADCLTGTFSLGGTQEECLPWTNCSAFQQEVRRGTNSTDTTCSSQVVYYVVSILLPLVIVGAGIAGFLICTRRHLHTSSVAKELEPFQEQQENTIRFPVTEVGFAETEEETASN [chain 2 S98A], the ratio to parent stood at 0.9.
On to chain 2 QPSCRQEEFLVGDECCPMCNPGYHVKQVCSEHTGTVCAPCPPQTYTAHANGRSKCLPCGVCDPDMGLLTWQECSSWKDTVCRCIPGYFCENQDGSHCSTCLQHTTCPPGQRVEKRGTHDQDTVCADCLTGTFSLGGTQEECLPWTNCSAFQQEVRRGTNSTDTTCSSQVVYYVVSILLPLVIVGAGIAGFLICTRRHLHTSSVAKELEPFQEQQENTIRFPVTEVGFAETEEETASN [chain 2 L52R], for which the ratio to parent came out at 0.4.
The same measure, in the same setting: the result for chain 2 QPSCRQEEFLVGDECCPMCNPGYHVKQVCSEHTGTVCAPCPPQTYTAHANGLSKCDPCGVCDPDMGLLTWQECSSWKDTVCRCIPGYFCENQDGSHCSTCLQHTTCPPGQRVEKRGTHDQDTVCADCLTGTFSLGGTQEECLPWTNCSAFQQEVRRGTNSTDTTCSSQVVYYVVSILLPLVIVGAGIAGFLICTRRHLHTSSVAKELEPFQEQQENTIRFPVTEVGFAETEEETASN [chain 2 L56D] reads 0.6.

Variants of B1 are the subject of a further test. As to the kind of experiment: flow cytometry, cell–cell method; read off a plot.
In the case of chain 2 QPSCRQEEFLVGDECCPMCNPGYHVKQVCSEHTGTVCAPCPPQTYTARANGASKCLPCGVCDPDMGLLTWQECSSWKDTVCRCIPGYFCENQDGSHCSTCLQHTTCPPGQRVEKRGTHDQDTVCADCLTGTFSLGGTQEECLPWTNCSAFQQEVRRGTNSTDTTCSSQVVYYVVSILLPLVIVGAGIAGFLICTRRHLHTSSVAKELEPFQEQQENTIRFPVTEVGFAETEEETASN [chain 2 H48R, chain 2 L52A], the ratio to parent was around 0.3.
Take chain 2 QPSCRQEEFLVGDECCPMCNPGYHVKQVCSEHTATDCAPCPPQTYTAHANGLSKCLPCGVCDPDMGLLTWQECSSWKDTVCRCIPGYFCENQDGSHCSTCLQHTTCPPGQRVEKRGTHDQDTVCADCLTGTFSLGGTQEECLPWTNCSAFQQEVRRGTNSTDTTCSSQVVYYVVSILLPLVIVGAGIAGFLICTRRHLHTSSVAKELEPFQEQQENTIRFPVTEVGFAETEEETASN [chain 2 G34A, chain 2 V36D]: the ratio to parent was around 1.1.
chain 2 QPSCRQEEFLVGDECCPMCNPGYHVKQVCSEHTGTVCAPCPPQTYTADANGASKCLPCGVCDPDMGLLTWQECSSWKDTVCRCIPGYFCENQDGSHCSTCLQHTTCPPGQRVEKRGTHDQDTVCADCLTGTFSLGGTQEECLPWTNCSAFQQEVRRGTNSTDTTCSSQVVYYVVSILLPLVIVGAGIAGFLICTRRHLHTSSVAKELEPFQEQQENTIRFPVTEVGFAETEEETASN [chain 2 H48D, chain 2 L52A]: the ratio to parent is around 0.24.
On the same count and under the same terms, the value for chain 2 QPSCRQEEFLVGDECCPMCNPGYHVKQVCSEHTGTVCAPCPPQTYTADANGRSKCLPCGVCDPDMGLLTWQECSSWKDTVCRCIPGYFCENQDGSHCSTCLQHTTCPPGQRVEKRGTHDQDTVCADCLTGTFSLGGTQEECLPWTNCSAFQQEVRRGTNSTDTTCSSQVVYYVVSILLPLVIVGAGIAGFLICTRRHLHTSSVAKELEPFQEQQENTIRFPVTEVGFAETEEETASN [chain 2 H48D, chain 2 L52R] was around 0.37; that for chain 2 QPSCRQEEFLVGDECCPMCNPGYHVKQVCSEHTGTVCAPCPPQTYTADANGDSKCLPCGVCDPDMGLLTWQECSSWKDTVCRCIPGYFCENQDGSHCSTCLQHTTCPPGQRVEKRGTHDQDTVCADCLTGTFSLGGTQEECLPWTNCSAFQQEVRRGTNSTDTTCSSQVVYYVVSILLPLVIVGAGIAGFLICTRRHLHTSSVAKELEPFQEQQENTIRFPVTEVGFAETEEETASN [chain 2 H48D, chain 2 L52D] was around 0.25; that for chain 2 QPSCRQEEFLVGDECCPMCNPGYHVKQVCSEHTRTACAPCPPQTYTAHANGLSKCLPCGVCDPDMGLLTWQECSSWKDTVCRCIPGYFCENQDGSHCSTCLQHTTCPPGQRVEKRGTHDQDTVCADCLTGTFSLGGTQEECLPWTNCSAFQQEVRRGTNSTDTTCSSQVVYYVVSILLPLVIVGAGIAGFLICTRRHLHTSSVAKELEPFQEQQENTIRFPVTEVGFAETEEETASN [chain 2 G34R, chain 2 V36A] was around 1.2.
As for chain 2 QPSCRQEEFLVGDECCPMCNPGYHVKQVCSEHTGTVCAPCPPQTYTAAANGASKCLPCGVCDPDMGLLTWQECSSWKDTVCRCIPGYFCENQDGSHCSTCLQHTTCPPGQRVEKRGTHDQDTVCADCLTGTFSLGGTQEECLPWTNCSAFQQEVRRGTNSTDTTCSSQVVYYVVSILLPLVIVGAGIAGFLICTRRHLHTSSVAKELEPFQEQQENTIRFPVTEVGFAETEEETASN [chain 2 H48A, chain 2 L52A], the ratio to parent is around 0.28.
chain 2 QPSCRQEEFLVGDECCPMCNPGYHVKQVCSEHTDTRCAPCPPQTYTAHANGLSKCLPCGVCDPDMGLLTWQECSSWKDTVCRCIPGYFCENQDGSHCSTCLQHTTCPPGQRVEKRGTHDQDTVCADCLTGTFSLGGTQEECLPWTNCSAFQQEVRRGTNSTDTTCSSQVVYYVVSILLPLVIVGAGIAGFLICTRRHLHTSSVAKELEPFQEQQENTIRFPVTEVGFAETEEETASN [chain 2 G34D, chain 2 V36R]: the ratio to parent is around 1.3.
Same read-out and setting: the result for chain 2 QPSCRQEEFLVGDECCPMCNPGYHVKQVCSEHTDTACAPCPPQTYTAHANGLSKCLPCGVCDPDMGLLTWQECSSWKDTVCRCIPGYFCENQDGSHCSTCLQHTTCPPGQRVEKRGTHDQDTVCADCLTGTFSLGGTQEECLPWTNCSAFQQEVRRGTNSTDTTCSSQVVYYVVSILLPLVIVGAGIAGFLICTRRHLHTSSVAKELEPFQEQQENTIRFPVTEVGFAETEEETASN [chain 2 G34D, chain 2 V36A] reads around 1.1.
Regarding chain 2 QPSCRQEEFLVGDECCPMCNPGYHVKQVCSEHTDTDCAPCPPQTYTAHANGLSKCLPCGVCDPDMGLLTWQECSSWKDTVCRCIPGYFCENQDGSHCSTCLQHTTCPPGQRVEKRGTHDQDTVCADCLTGTFSLGGTQEECLPWTNCSAFQQEVRRGTNSTDTTCSSQVVYYVVSILLPLVIVGAGIAGFLICTRRHLHTSSVAKELEPFQEQQENTIRFPVTEVGFAETEEETASN [chain 2 G34D, chain 2 V36D], the ratio to parent is around 0.87.

The variants in a further test derive from B2. The test is described as follows: flow cytometry, cell–cell method.
With chain 2 QPSCRQEEFLVGDECCPMCNPGYHVKQVCSEHTGTVCAPCPPQTYTAHANGLSKCLPCGVCDPDMGLLTWQECSSWKDTVCRCIPGYFCENQDGSHCATCLQHTTCPPGQRVEKRGTHDQDTVCADCLTGTFSLGGTQEECLPWTNCSAFQQEVRRGTNSTDTTCSSQVVYYVVSILLPLVIVGAGIAGFLICTRRHLHTSSVAKELEPFQEQQENTIRFPVTEVGFAETEEETASN [chain 2 S98A], the ratio to parent stood at 1.
On the same count and under the same terms, the result for chain 2 QPSCRQEEFLVGDECCPMCNPGYHVKQVCDEHTGTVCAPCPPQTYTAHANGLSKCLPCGVCDPDMGLLTWQECSSWKDTVCRCIPGYFCENQDGSHCSTCLQHTTCPPGQRVEKRGTHDQDTVCADCLTGTFSLGGTQEECLPWTNCSAFQQEVRRGTNSTDTTCSSQVVYYVVSILLPLVIVGAGIAGFLICTRRHLHTSSVAKELEPFQEQQENTIRFPVTEVGFAETEEETASN [chain 2 S30D] reads 0.8.
On the same count and under the same terms, the result for chain 2 QPSCRQEEFLVGDECCPMCNPGYHVKQVCSEHTGTVCAPCPPQTYTAHANGLSKCDPCGVCDPDMGLLTWQECSSWKDTVCRCIPGYFCENQDGSHCSTCLQHTTCPPGQRVEKRGTHDQDTVCADCLTGTFSLGGTQEECLPWTNCSAFQQEVRRGTNSTDTTCSSQVVYYVVSILLPLVIVGAGIAGFLICTRRHLHTSSVAKELEPFQEQQENTIRFPVTEVGFAETEEETASN [chain 2 L56D] reads 1.1; that for chain 2 QPSCRQEEFLVGDECCPMCNPGYHVAQVCSEHTGTVCAPCPPQTYTAHANGLSKCLPCGVCDPDMGLLTWQECSSWKDTVCRCIPGYFCENQDGSHCSTCLQHTTCPPGQRVEKRGTHDQDTVCADCLTGTFSLGGTQEECLPWTNCSAFQQEVRRGTNSTDTTCSSQVVYYVVSILLPLVIVGAGIAGFLICTRRHLHTSSVAKELEPFQEQQENTIRFPVTEVGFAETEEETASN [chain 2 K26A], 0.9; that for chain 2 QPSCRQEEFLVGDECCPMCNPGYHVKQVCSEHTGTVCAPCPPQTYTAHANGDSKCLPCGVCDPDMGLLTWQECSSWKDTVCRCIPGYFCENQDGSHCSTCLQHTTCPPGQRVEKRGTHDQDTVCADCLTGTFSLGGTQEECLPWTNCSAFQQEVRRGTNSTDTTCSSQVVYYVVSILLPLVIVGAGIAGFLICTRRHLHTSSVAKELEPFQEQQENTIRFPVTEVGFAETEEETASN [chain 2 L52D], 0.8.
Take chain 2 QPSCRQEEFLVGDECCPMCNPGYHVKQVCSEHTGTACAPCPPQTYTAHANGLSKCLPCGVCDPDMGLLTWQECSSWKDTVCRCIPGYFCENQDGSHCSTCLQHTTCPPGQRVEKRGTHDQDTVCADCLTGTFSLGGTQEECLPWTNCSAFQQEVRRGTNSTDTTCSSQVVYYVVSILLPLVIVGAGIAGFLICTRRHLHTSSVAKELEPFQEQQENTIRFPVTEVGFAETEEETASN [chain 2 V36A]: the ratio to parent was determined as 1.

These data come from PMC8558838 (The Journal of Experimental Medicine, 2021).
